Measurements taken from US8357523B2, “Beta-glucosidase variant enzymes and related polynucleotides” (Codexis, Inc., priority 2009, dated 2013).

B1: 49 (protein)
chain: STAIAQEGAAPAAILHPEKWPRPATQRLIDPAVEKRVDALLKQLSVEEKVGQVIQGDIGTITPEDLRKYPLGSILAGGNSGPNGDDRAPPKEWLDLADAFYRVSLEKRPGHTPIPVLFGIDAVHGHGNIGSATIFPHNIALGATHDPELLRRIGEVTAVEMAATGIDWTFAPALSVVRDDRWGRTYEGFSEDPEIVAAYSAAIVEGVQGKFGSKDFMAPGRIVASAKHFLADGGTDQGRDQGDARISEDELIRIHNAGYPPAIDAGVLTVMASFSSWQGIKHHGHKQLLTDVLKGQMGFNGFIVGDWNAHDQVPGCTKFNCPTSLIAGLDMYMAADSWKQLYENTLAQVKDGTIPMARLDDAVRRILRVKVLAGLFEKPAPKDRPGLPGLETLGSPEHRAVGREAVRKSLVLLKNDKGTLPLSPKARVLVAGDGADNIGKQSGGWTISWQGTGNRNDEFPGATSILGGIRDAVADAGGSVEFDVAGDYKTKPDVAIVVFGEEPYAEFQGDVETLEYQPDQKQDLALLKKLKDQGIPVVAVFLSGRPMWVNPELNASDAFVAAWLPGTEGGGVADVLFTDKAGKVQHDFAGKLSYSWPRTAAQTTVNRGDADYNPLFAYGYGLTYKDKSKVGTLPEESGVPAEARQNAGIYFRAGALRLPGRFL
B2: 55 (protein)
chain: STAIAQEGAAPAAILHPEKWPRPATQRLIDPAVEKRVDALLKQLSVEEKVGQVIQGDIGTITPEDLRKYPLGSILAGGNSGPNGDDRAPPKEWLDLADAFYRVSLEKRPGHTPIPVLFGIDAVHGHGNIGSATIFPHNIALGATHDPELLRRIGEVTAVEMAATGIDWTFAPALSVVRDDRWGRTYEGFSEDPEIVAAYSAAIVEGVQGKFGSKDFMAPGRIVATAKHFLADGGTDQGRDQGDARISEDELIRIHNAGYPPAIDAGVLTVMASFSSWQGIKHHGHKQLLTDVLKGQMGFNGFIVGDWNAHDQVPGCTKFNCPTSLIAGLDMYMAADSWKQLYENTLAQVKDGTIPMARLDDAVRRILRVKVLAGLFEKPAPKDRPGLPGLETLGSPEHRAVGREAVRKSLVLLKNDKGTLPLSPKARVLVAGDGADNIGKQSGGWTISWQGTGNRNDEFPGATSILGGIRDAVADAGGSVEFDVAGQYKTKPDVAIVVFGEEPYAEFQGDVETLEYQPDQKQDLALLKKLKDQGIPVVAVFLSGRPMWVNPELNASDAFVAAWLPGTEGGGVADVLFTDKAGKVQHDFAGKLSYSWPRTAAQTTVNRGDADYNPLFAYGYGLTYKDKSKVGTLPEESGVPAEARQNAGIYFRAGALRLPGRFL
B3: 54 (protein)
chain: STAIAQEGAAPAAILHPEKWPRPATQRLIDPAVEKRVDALLKQLSVEEKVGQVIQGDIGTITPEDLRKYPLGSILAGGNSGPNGDDRAPPKEWLDLADAFYRVSLEKRPGHTPIPVLFGIDAVHGHGNIGSATIFPHNIALGATHDPELLRRIGEVTAVEMAATGIDWTFAPALSVVRDDRWGRTYEGFSEDPEIVAAYSAAIVEGVQGKFGSKDFMAPGRIVASAKHFLADGGTDQGRDQGDARISEDELIRIHNAGYPPAIDAGVLTVMASFSSWQGIKHHGHKQLLTDVLKGQMGFNGFIVGDWNAHDQVPGCTKFNCPTSLIAGLDMYMAADSWKQLYENTLAQVKDGTIPMARLDDAVRRILRVKVLAGLFEKPAPKDRPGLPGLETLGSPEHRAVGREAVRKSLVLLKNDKGTLPLSPKARVLVAGDGADNIGKQSGGWTISWQGTGNRNDEFPGATSILGGIRDAVADAGGSVEFDVAGQYKTKPDVAIVVFGEEPYAEFQGDVETLEYQPDQKQDLALLKKLKDQGIPVVAVFLSGRPMWVNPELNASDAFVAAWLPGTEGGGVADVLFTDKAGKVQHDFAGKLSYSWPRTAAQTTVNRGDADYNPLFAYGYGLTYKDKSKVGTLPEESGVPAEARQNAGIYFRAGALRLPGRFQ
B4: 56 (protein)
chain: STAIAQEGAAPAAILHPEKWPRPATQRLIDPAVEKRVDALLKQLSVEEKVGQVIQGDIGTITPEDLRKYPLGSILAGGNSGPNGDDRAPPKEWLDLADAFYRVSLEKRPGHTPIPVLFGIDAVHGHGNIGSATIFPHNIALGATHDPELLRRIGEVTAVEMAATGIDWTFAPALSVVRDDRWGRTYEGFSEDPEIVAAYSAAIVEGVQGKFGSKDFMAPGRIVAFAKHFLADGGTDQGRDQGDARISEDELIRIHNAGYPPAIDAGVLTVMASFSSWQGIKHHGHKQLLTDVLKGQMGFNGFIVGDWNAHDQVPGCTKFNCPTSLIAGLDMYMAADSWKQLYENTLAQVKDGTIPMARLDDAVRRILRVKVLAGLFEKPAPKDRPGLPGLETLGSPEHRAVGREAVRKSLVLLKNDKGTLPLSPKARVLVAGDGADNIGKQSGGWTISWQGTGNRNDEFPGATSILGGIRDAVADAGGSVEFDVAGQYKTKPDVAIVVFGEEPYAEFQGDVETLEYQPDQKQDLALLKKLKDQGIPVVAVFLSGRPMWVNPELNASDAFVAAWLPGTEGGGVADVLFTDKAGKVQHDFAGKLSYSWPRTAAQTTVNRGDADYNPLFAYGYGLTYKDKSKVGTLPEESGVPAEARQNAGIYFRAGALRLPGRFL
B5: 53 (protein)
chain: STAIAQEGAAPAAILHPEKWPRPATQRLIDPAVEKRVDALLKQLSVEEKVGQVIQGDIGTITPEDLRKYPLGSILAGGNSGPNGDDRAPPKEWLDLADAFYRVSLEKRPGHTPIPVLFGIDAVHGHGNIGSATIFPHNIALGATHDPELLRRTGEVTAVEMAATGIDWTFAPALSVVRDDRWGRTYEGFSEDPEIVAAYSAAIVEGVQGKFGSKDFMAPGRIVASAKHFLADGGTDQGRDQGDARISEDELIRIHNAGYPPAIDAGVLTVMASFSSWQGIKHHGHKQLLTDVLKGQMGFNGFIVGDWNAHDQVPGCTKFNCPTSLIAGLDMYMAADSWKQLYENTLAQVKDGTIPMARLDDAVRRILRVKVLAGLFEKPAPKDRPGLPGLETLGSPEHRAVGREAVRKSLVLLKNDKGTLPLSPKARVLVAGDGADNIGKQSGGWTISWQGTGNRNDEFPGATSILGGIRDAVADAGGSVEFDVAGQYKTKPDVAIVVFGEEPYAEFQGDVETLEYQPDQKQDLALLKKLKDQGIPVVAVFLSGRPMWVNPELNASDAFVAAWLPGTEGGGVADVLFTDKAGKVQHDFAGKLSYSWPRTAAQTTVNRGDADYNPLFAYGYGLTYKDKSKVGTLPEESGVPAEARQNAGIYFRAGALRLPGRFL
B6: 50 (protein)
chain: STAIAQEGAAPAAILHPEKWPRPATQRLIDPAVEKRVDALLKQLSVEEKVGQVIQGDIGTITPEDLRKYPLGSILAGGNSGPNGDDRAPPKEWLDLADAFYRVSLEKRPGHTPIPVLFGIDAVHGHGNIGSATIFPHNIALGATHDPELLRRIGEVTAVEMAATGIDWTFAPALSVVRDDRWGRTYEGFSEDPEIVAAYSAAIVEGVQGKFGSKDFMAPGRIVASAKHFLADGGTDQGRDQGDARISEDELIRIHNAGYPPAIDAGVLTVMASFSSWQGIKHHGHKQLLTDVLKGQMGFNGFIVGDWNAHDQVPGCTKFNCPTSLIAGLDMYMAADSWKQLYENTLAQVKDGTIPMARLDDAVRRILRVKVLAGLFEKPAPKDRPGLPGLETLGSPEHRAVGREAVRKSLVLLKNDKGTLPLSPKARVLVAGDGADNIGKQSGGWTISWQGTGNRNDEFPGATSILGGIRDAVADAGGSVEFDVAGQYKTKPDVAIVVFGEEPYAEFQGDVETLEYQPDQKQDLALLKKLKDQGIPVVAVFLSGRPMWVNPELNASDAFVAAWLPGTEGGGVADVLFTDKAGKVQHDFAGKLSYSWPRTAAQTTVNRGDADYNPLFAYGYGLTYKDKSCVGTLPEESGVPAEARQNAGIYFRAGALRLPGRFL
B7: 51 (protein)
chain: STAIAQEGAAPAAILHPEKWPRPATQRLIDPAVEKRVDALLKQLSVEEKVGQVIQGDIGTITPEDLRKYPLGSILAGGNSGPNGDDRAPPKEWLDLADAFYRVSLEKRPGHTPIPVLFGIDAVHGHGNIGSATIFPHNIALGATHDPELLRRIGEVTAVEMAATGIDWTFAPALSVVRDDRWGRTYEGFSEDPEIVAAYSAAIVEGVQGKFGSKDFMAPGRIVASAKHFLADGGTDQGRDQGDARISEDELIRIHNAGYPPAIDAGVLTVMASFSSWQGIKHHGHKQLLTDVLKGQMGFNGFIVGDWNAHDQVPGCTKFNCPTSLIAGLDMYMAADSWKQLYENTLAQVKDGTIPMARLDDAVRRILRVKVLAGLFEKPAPKDRPGLPGLETLGSPEHRAVGREAVRKSLVLLKNDKGTLPLSPKARVLVAGDGADNIGKQSGGWTISWQGTGNRNDEFPGATSILGGIRDAVADAGGSVEFDVAGQYKTKPDVAIVVFGEEPYAEFQGDVETLEYQPGQKQDLALLKKLKDQGIPVVAVFLSGRPMWVNPELNASDAFVAAWLPGTEGGGVADVLFTDKAGKVQHDFAGKLSYSWPRTAAQTTVNRGDADYNPLFAYGYGLTYKDKSKVGTLPEESGVPAEARQNAGIYFRAGALRLPGRFL
B8: 52 (protein)
chain: STAIAQEGAAPAAILHPEKWPRPATQRLIDPAVEKRVDALLKQLSVEEKVGQVIQGDIGTITPEDLRKYPLGSILAGGNSGPNGDDRAPPKEWLDLADAFYRVSLEKRPGHTPIPVLFGIDAVHGHGNIGSATIFPHNIAIGATHDPELLRRIGEVTAVEMAATGIDWTFAPALSVVRDDRWGRTYEGFSEDPEIVAAYSAAIVEGVQGKFGSKDFMAPGRIVASAKHFLADGGTDQGRDQGDARISEDELIRIHNAGYPPAIDAGVLTVMASFSSWQGIKHHGHKQLLTDVLKGQMGFNGFIVGDWNAHDQVPGCTKFNCPTSLIAGLDMYMAADSWKQLYENTLAQVKDGTIPMARLDDAVRRILRVKVLAGLFEKPAPKDRPGLPGLETLGSPEHRAVGREAVRKSLVLLKNDKGTLPLSPKARVLVAGDGADNIGKQSGGWTISWQGTGNRNDEFPGATSILGGIRDAVADAGGSVEFDVAGQYKTKPDVAIVVFGEEPYAEFQGDVETLEYQPDQKQDLALLKKLKDQGIPVVAVFLSGRPMWVNPELNASDAFVAAWLPGTEGGGVADVLFTDKAGKVQHDFAGKLSYSWPRTAAQTTVNRGDADYNPLFAYGYGLTYKDKSKVGTLPEESGVPAEARQNAGIYFRAGALRLPGRFL

Test: High throughput cellobiose assay: fold improvement in cellobiase activity of CelA variants over a control enzyme (Tables 2A-2D, 3, 5, 6, 7)
Assay type: biochemical
Conditions: 3.3 g/l cellobiose, 50° C. and pH 6.5; compared to native CelA (SEQ ID NO: 4)
For B1, the “Fold improvement over wildtype CelA” value was “+ (+ = 1.1 to 2.0 fold improvement over native CelA (SEQ ID NO: 4))”.
For B2, the “Fold improvement over wildtype CelA” value was “+ (+ = 1.1 to 2.0 fold improvement over native CelA (SEQ ID NO: 4))”.
With B3 the “Fold improvement over wildtype CelA” value was “+ (+ = 1.1 to 2.0 fold improvement over native CelA (SEQ ID NO: 4))”.
With B4 the “Fold improvement over wildtype CelA” value was “+ (+ = 1.1 to 2.0 fold improvement over native CelA (SEQ ID NO: 4))”.
For B5, the “Fold improvement over wildtype CelA” value was “+ (+ = 1.1 to 2.0 fold improvement over native CelA (SEQ ID NO: 4))”.
With B6 the “Fold improvement over wildtype CelA” value was “+ (+ = 1.1 to 2.0 fold improvement over native CelA (SEQ ID NO: 4))”.
For B7, the “Fold improvement over wildtype CelA” value was “+ (+ = 1.1 to 2.0 fold improvement over native CelA (SEQ ID NO: 4))”.
In the case of B8, the “Fold improvement over wildtype CelA” value is reported as “+ (+ = 1.1 to 2.0 fold improvement over native CelA (SEQ ID NO: 4))”.
